Experiments:
[1] = system: RFL79 (Rf1) (Triticum aestivum (accession R197 for the cloned gene; source of the REMSA construct not stated)); assay: EMSA; settings: apparent Kd; protein mostly aggregated; 1 nM probe; Binding buffer 1x THE (34 mM Tris, 66 mM HEPES, 0.1 mM EDTA, pH 8), 0.2 M NaCl, 5 mM DTT, 5 mg/mL heparin, 0.1 mg/mL BSA, RNaseOUT (10 uL) + 5 uL protein in …
[2] = system: RFL29a (Rf3) (Triticum aestivum (accession R0934F for the cloned gene; source of the REMSA construct not stated)); assay: EMSA; settings: apparent Kd; protein mostly aggregated; 1 nM probe; Binding buffer 1x THE (34 mM Tris, 66 mM HEPES, 0.1 mM EDTA, pH 8), 0.2 M NaCl, 5 mM DTT, 5 mg/mL heparin, 0.1 mg/mL BSA, RNaseOUT (10 uL) + 5 uL protein in …

Sequence	Kd [1]	Kd [2]
CUGUAAAUCAAGAAUUCCUCGAAGA [BS RFL79 (orf279)]	1000 nM	
CUUCACCUGUGCACUUAUUUAUGUAU [BS RFL29a (orf279)]		1000 nM

— PMC7884431
